B1: sgRNAs 1112+1122: pair of single guide RNAs, SEQ ID NO: 18 and 19, targeting the K1-5 phage genome with Cas9 (nucleic acid)
guide 1: UAUAUUAUACCAGAGAGGCGGUUUUAGAGCUAGAAAUAGCAAGUUAAAAUAAGGCUAGUCCGUUAUCAACUUGAAAAAGUGGCACCGAGUCGGUGCUUUUUUU
guide 2: GAAGUUCUAAGGAGAUAACAGUUUUAGAGCUAGAAAUAGCAAGUUAAAAUAAGGCUAGUCCGUUAUCAACUUGAAAAAGUGGCACCGAGUCGGUGCUUUUUUU
modifications: further chemistry not given here
B2: sgRNAs 86+89: pair of single guide RNAs, SEQ ID NO: 16 and 17, targeting the K1-5 phage genome with Cas9 (nucleic acid)
guide 1: ACUAAAUGAGGAUUAAAUCAGUUUUAGAGCUAGAAAUAGCAAGUUAAAAUAAGGCUAGUCCGUUAUCAACUUGAAAAAGUGGCACCGAGUCGGUGCUUUUUUU
guide 2: UUACUCUGAUGCACUACAUGGUUUUAGAGCUAGAAAUAGCAAGUUAAAAUAAGGCUAGUCCGUUAUCAACUUGAAAAAGUGGCACCGAGUCGGUGCUUUUUUU
modifications: further chemistry not given here

Tested on: K1-5 phage
Assay: Plaquing efficiency of K1-5 phage on K1 E. coli strains with inducible CRISPR-Cas9 and sgRNAs targeting the phage genome
Format: cell-based, K1-5 bacteriophage
Details: K1-5 phage plated on strains expressing the sgRNAs, in the absence of homology for repair
Protocol: K1 E. coli strains were generated for cleaving and recombining at locations specified by either sgRNAs 86+89 or sgRNAs 1112+1122. Cells were maintained with 50 μg/mL kanamycin (for the CRISPR expression vector) and 10 μg/mL gentamicin (for the recombination expression vector). Cells were grown while shaking at 37° C. to OD600˜0.6 and were then subjected to various induction treatments. Cultures were either (1) not induced, (2) induced with 100 ng/mL anhydrotetracycline (aTc) to activate Cas9 expression, (3) induced with 0.2% arabinose to activate lambda red operon expression, or (4) induced with both 100 ng/mL anhydrotetracycline and 0.2% arabinose to activate expression of Cas9 and lambda red genes. Induction was carried out for 2 hours while shaking at 37° C.
K1-5 lysate was then used to infect 200 μL cultures of each bacterial strain/induction condition at 10^6, 10^4, and 10^2 PFU. This infection was given 10 minutes for the phage to adsorb before being added to 3 mL of 0.65% LB top agar. The appropriate inducer was spiked into each top agar tube to maintain induction. The top agar was then spread over an LB agar plate containing the appropriate antibiotics to maintain the CRISPR and recombination expression vectors. The agar plates were incubated in an airtight container for approximately 16 hours at 37° C. […]

Molecule	reduction in plaquing efficiency
B1	2105 fold
B2	~1.9×10^6 fold

From US10202610B2, “Recombinant K1-5 bacteriophages and uses thereof” (priority 2017, dated 2019)
